Test results reported in article PMC10527347 (Journal of molecular biology, 2023).
Numbering of substitutions follows the chain as printed. In names and notes the source's numbering stands. Read-outs that look alike come from different tables or passages of the source. Values belong to the binder of their own block, whether it stands above or below them.

Key:
biotin-labeled Ydj1 = biological target: T1, biotin-labeled Ydj1 (S. cerevisiae, UniProt P25491 1-409, biotin label (site not stated)); experiment: pull-down
T1 sequence (looked up): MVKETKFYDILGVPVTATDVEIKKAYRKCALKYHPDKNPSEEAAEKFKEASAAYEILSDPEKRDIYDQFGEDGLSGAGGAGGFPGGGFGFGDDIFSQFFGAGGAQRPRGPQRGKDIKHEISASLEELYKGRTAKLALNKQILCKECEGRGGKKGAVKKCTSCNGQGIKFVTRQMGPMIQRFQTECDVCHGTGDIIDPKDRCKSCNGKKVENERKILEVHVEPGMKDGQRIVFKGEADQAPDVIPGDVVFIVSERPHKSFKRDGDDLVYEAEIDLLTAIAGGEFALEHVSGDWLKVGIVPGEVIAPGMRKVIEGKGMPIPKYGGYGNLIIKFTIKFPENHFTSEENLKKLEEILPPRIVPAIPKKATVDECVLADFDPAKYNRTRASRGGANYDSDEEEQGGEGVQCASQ

Hsp90Ec N347C [1] = biological target: T2, Hsp90Ec N347C (E. coli, UniProt P0A6Z3 1-624, N347C); experiment: cross-linking
Hsp90Ec wild-type [2] = biological target: T3, Hsp90Ec wild-type (E. coli, UniProt P0A6Z3 1-624); experiment: cross-linking
Hsp90Ec K199C [3] = biological target: T4, Hsp90Ec K199C (E. coli, UniProt P0A6Z3 1-624, K199C); experiment: cross-linking
Hsp90Ec K238C = Hsp90Ec K238C (E. coli, UniProt P0A6Z3 1-624, K238C); experiment: cross-linking
Hsp90Ec K199C [4] = biological target: T4, Hsp90Ec K199C; experiment: cross-linking; remark: listed apart in the source
Hsp90Ec K99C = Hsp90Ec K99C (E. coli, UniProt P0A6Z3 1-624, K99C); experiment: cross-linking
Hsp90Ec K71C = Hsp90Ec K71C (E. coli, UniProt P0A6Z3 1-624, K71C); experiment: cross-linking
Hsp90Ec K45C = Hsp90Ec K45C (E. coli, UniProt P0A6Z3 1-624, K45C); experiment: cross-linking
Hsp90Ec K354C = Hsp90Ec K354C (E. coli, UniProt P0A6Z3 1-624, K354C); experiment: cross-linking
Hsp90Ec K103C = Hsp90Ec K103C (E. coli, UniProt P0A6Z3 1-624, K103C); experiment: cross-linking
cross-linking = biological target: the molecule itself; experiment: cross-linking
Hsp90Ec N347C [5] = biological target: T2, Hsp90Ec N347C; experiment: cross-linking; remark: listed apart in the source
Hsp90Ec N347C/D80N = Hsp90Ec N347C/D80N (E. coli, UniProt P0A6Z3 1-624, N347C | D80N); experiment: cross-linking
Hsp90Ec N350C = Hsp90Ec N350C (E. coli, UniProt P0A6Z3 1-624, N350C); experiment: cross-linking
Hsp90Ec wild-type [6] = biological target: T3, Hsp90Ec wild-type; experiment: BLI

B1: Hsp82 wild-type (natural protein)
chain: not shown
fold change in interaction, with L2 against without L2 (biotin-labeled Ydj1): ~2 fold

B2: CbpA A44C (natural protein, E. coli, UniProt P36659 1-306, looked up)
chain: MELKDYYAIMGVKPTDDLKTIKTAYRRLARKYHPDVSKEPDAECRFKEVAEAWEVLSDEQRRAEYDQMWQHRNDPQFNRQFHHGDGQSFNAEDFDDIFSSIFGQHARQSRQRPATRGHDIEIEVAVFLEETLTEHKRTISYNLPVYNAFGMIEQEIPKTLNVKIPAGVGNGQRIRLKGQGTPGENGGPNGDLWLVIHIAPHPLFDIVGQDLEIVVPVSPWEAALGAKVTVPTLKESILLTIPPGSQAGQRLRVKGKGLVSKKQTGDLYAVLKIVMPPKPDENTAALWQQLADAQSSFDPRKDWGKA
binding result (Hsp90Ec N347C [1]): binds

B4: CbpA K22C (natural protein, E. coli, UniProt P36659 1-306, looked up)
chain: B2 chain with K22C, C44A
binding result (Hsp90Ec N347C [1]): binds | binding result (Hsp90Ec K238C): binds | binding result (Hsp90Ec K199C [4]): binds | binding result (Hsp90Ec K99C): binds | binding result (Hsp90Ec K71C): binds | binding result (Hsp90Ec K45C): binds | binding result (Hsp90Ec K354C): binds | binding result (Hsp90Ec K103C): binds

B5: CbpA E51C (natural protein, E. coli, UniProt P36659 1-306, looked up)
chain: B2 chain with C44A, E51C
binding result (Hsp90Ec K199C [3]): binds | binding result (cross-linking): binds | binding result (Hsp90Ec N347C [5]): binds | binding result (Hsp90Ec N347C/D80N): binds | binding result (Hsp90Ec N350C): binds

B6: CbpA S57C (natural protein, E. coli, UniProt P36659 1-306, looked up)
chain: B2 chain with C44A, S57C
binding result (Hsp90Ec N347C [1]): binds

Other lines, results leading:

binding result (Hsp90Ec wild-type [2]): binds | binding result (Hsp90Ec K199C [3]): binds
B3: CbpA wild-type (natural protein, E. coli, UniProt P36659 1-306, looked up)
chain: B2 chain with C44A

Kd (Hsp90Ec wild-type [6]): 3.6 ± 0.3 µM
B7: biotin-labeled DnaJ (natural protein, E. coli, UniProt P08622 1-376, looked up)
chain: MAKQDYYEILGVSKTAEEREIRKAYKRLAMKYHPDRNQGDKEAEAKFKEIKEAYEVLTDSQKRAAYDQYGHAAFEQGGMGGGGFGGGADFSDIFGDVFGDIFGGGRGRQRAARGADLRYNMELTLEEAVRGVTKEIRIPTLEECDVCHGSGAKPGTQPQTCPTCHGSGQVQMRQGFFAVQQTCPHCQGRGTLIKDPCNKCHGHGRVERSKTLSVKIPAGVDTGDRIRLAGEGEAGEHGAPAGDLYVQVQVKQHPIFEREGNNLYCEVPINFAMAALGGEIEVPTLDGRVKLKVPGETQTGKLFRMRGKGVKSVRGGAQGDLLCRVVVETPVGLNERQKQLLQELQESFGGPTGEHNSPRSKSFFDGVKKFFDDLTR
modifications: biotin label (site not stated)
